Laboratory results published in the nanobody polyreactivity screen of Harvey et al. (2022).

Assay: yeast display, Sf9 membrane polyspecificity reagent, FACS + sequencing; frameworks hold sequencing errors
In short: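 A nanobody's polyreactivity label depends on the gate it was sorted from. Yeast display cells were stained with 10% biotinylated, detergent-solubilized Sf9 membrane reagent for 1 hour at 4 °C, enriched on streptavidin microbeads and sorted by FACS. The low and high (top ~1%) gates were set on anti-HA fluorescence for expression and streptavidin fluorescence for reagent binding.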

Sequence: QVQLVESGGGLVQAGGSLRLSCAASGRTFWYNAMGWYRQAPGKERELVATISPGGRTYYADSVKGRFTISRDNAKNTVYLQMNSVKPEDTAVYYCDASSSFSRYGVVPYYYWGQGTQVTVSS
- polyreactivity (PSR sort gate): high polyreactivity

Sequence: QVQLVESRGGLVQAGGSLRLSCAASGFTFRYYAMGWYRQAPGKERELVARITRCASTSYADSVKGRFTISRDNAKNTVYLLMISLIPEDTAVYYCAADSPAGGYVFPELPYDYWGQGTQVTVSS
- polyreactivity (PSR sort gate): low polyreactivity

Sequence: QVQLVESGGGLVQAGGSLRLSCAASGRIFGLNAMGWYRQAPGKERELVAAISERDGSTYYADSVKGRFTISRDNAKNTVYLQMNSLKPEDTAVYYCAAVTPVHYVRGVHYDYWGQGTQVTVSS
- polyreactivity (PSR sort gate): low polyreactivity

Sequence: QVQLVESGGGLVQAGGSLRLSCAASGRTFAYYAMGWYRQAPGTERELVAAISYSGARTYYADSVKGRFTISRDNAKNTVYLQMNSLKPEDTAVYYCAKSRGYPYTDYNYWGQGTQVTVSS
- polyreactivity (PSR sort gate): high polyreactivity

Sequence: QLQLVESGGGLVQAGGSLRLSCAPSGRIFAPYAMGWYIPAPVKERELVAAIRLSGGSTYYADSVKGRFTISRDNAKNTVYLKMNSLKPEDTEVYYCAARYPGVARFYYWGQATQVTVSS
- polyreactivity (PSR sort gate): high polyreactivity

Sequence: QVQLVESGGGLVQAGGSLRLSCAASGSTFQYYAMGWYRQAPGKDRELVAAIRTGGSTNYAHSVKGRFTISRDNAKNTVYLQMNSLKPDDNAVYYCAKRSLRSYRMNYWGQGTQVTVSS
- polyreactivity (PSR sort gate): high polyreactivity

Sequence: QVQLVESVGGLVQAGGSLRLICAASGSTFNWYAMGWYRQAPGKERDLVADITWRDGSTYYADSVKGRFTISRDNAKNTVYLQMNSLKPDDPAVYYCADDYTYWGIFFGYWGQGTQVTVSS
- polyreactivity (PSR sort gate): high polyreactivity

Sequence: QVQLVESGGGLVQAGGSLRLSCAASGFTFSRYTMGWYRQAPGKERELVAAITSVGSTYYADSVKGRFTISRDNAKNTVYLQMNSLKPEDTAVYYCARTYSTWYYYWGQGTQVTVSS
- polyreactivity (PSR sort gate): high polyreactivity

Sequence: QVQLVESGGGLVQAGGSLRLSCAASGFIFSWNAMGWYRQAPGKERELVAAITNRGGSTYYADSVKGRFTISRDNAKNTVYLQMNSLKPEDTAVYYCAKRSSRWGRTPYDYWGQGTQVTVSS
- polyreactivity (PSR sort gate): high polyreactivity

Sequence: QVQLVESGGGLVQAGGSLRLSCAASGSIFRGYTMGWYRQAPGKERELVAAISTRGGSTYYADSVKGRFTISRDNAKNTVYLQMNSLKPEDTAVYYCNARSRGRASGYDYWGQGTQVTVSS
- polyreactivity (PSR sort gate): high polyreactivity

Sequence: QVQLVESGGGLVQAGGSLRLSCAASGFIFFQYAMGWYRPAPGKERELVAAISGSGVTTYYADSVKGRFTISRDNAKNTVYLQMNSLKPDDTAVYYCNAGSVSDRQMDYWGQGTQVTVSS
- polyreactivity (PSR sort gate): low polyreactivity

Sequence: QVQLHESGGGLLQAGGGLRLSCAASGSISSTGFMGWYRQAPGKEREPVAAIAPGTTTYYADSVKGRFTISRDNAKNTVYLQMNSLRPEDTAVYYCAVFTDNRVAFLYWGQGTQVTVSS
- polyreactivity (PSR sort gate): low polyreactivity

Sequence: QVQLVESGGGLVQAGGSLRLSCAASGSIFVEYAMGWYRQAPGKERELVAGISSGGITSYADSVKGRFTISRDNAKNTVYLQMNSLKPEDTAGYYCATDPYKWFYSSYYLLQEVEYWGQGTQVTVSS
- polyreactivity (PSR sort gate): low polyreactivity

Sequence: QVQLVESGGGLVQAGGSLRLSCAASGNIYDPYAMGWYRQAPGKERELVARISSGGRTDYADSVKGRFTISRDNAKNTVYLQMNSLKPEDTAVYYCAADVLQAYYLTLFGYRYYLVDYWGQGTQVTVSS
- polyreactivity (PSR sort gate): low polyreactivity

Sequence: QVQLVESGGGLVQAGGSLRLSCAASGRTISFNTMAWYRQAPGKERDLVAGIERGGSTNYADSVKVRFTISRDNAKNTVYFQMNSLKPEDTAVYYCAARNLRYRYRNYDYWGQGTQVTVSS
- polyreactivity (PSR sort gate): high polyreactivity

Sequence: QVQLVESGGGLVQAGGSLRLSCAASGSTFYSNPMGWSRQAPGKESEFVAAISWSGGSTYYADSVKGRFTISRDNAKNSVYFQMYSLKPQDTAVYSCAKKPYYYAYGGYGYWGQGNQVTVSS
- polyreactivity (PSR sort gate): high polyreactivity

Sequence: QVQLVESGGGLVQAGGSLRLSCAASGFIFHEYAMGWSRQAPGKERELVAAISSGGGSTYYADSVKGRFTISRDNANNTVYLQMNSLKPEDTAVYYCAADATAYSVLTRDYWGQGTQVTVSS
- polyreactivity (PSR sort gate): high polyreactivity

Sequence: QVQLVESGGGLVQAGGSLRLSCAASGSTFGLNVMGWYRQAPGKEREFVAGISRSGGRTYYADSVKGRFTISRDNAKNTVYLQMNSLKPEDTAVYYRAADYWTGITPDAIGDYWGQGTQVTVSS
- polyreactivity (PSR sort gate): low polyreactivity

Sequence: QVHLYESGGGLVQLGGSLRLSCAASGTIFDYYTMGWYSQAPGKEREFVAAIAYGTNTYYADSVKGRFSISRDNAKHTVFLLLYSLKPEDTAVYYCATVGPRGLYYYWGQGTQVTVSS
- polyreactivity (PSR sort gate): high polyreactivity

Sequence: QVQLVESGGGLVQAGGSLRLSCAASGRIFRTYAMGWYRQAPGKERELVAAISGRGGNTYYADSVKGRFTSSRDNAKNTVYLQMNSLKPEETAVYYCAASKPARDTQQRWVYAGYDYWGQGTQVTVSS
- polyreactivity (PSR sort gate): high polyreactivity

Sequence: QVQLVESGGGLVQAGGSLRLSCAASGSIFTRYAMGWYRQAPGKERELVAAITASGGRTYYADSVKGRFTISRDNAKNTVYLQMNSLKPEDTAVYYCNTYWRFTSQLPYDYWGQGTQVTVSS
- polyreactivity (PSR sort gate): high polyreactivity

Sequence: QVQLVESGGGLVQAGGSLRLSCAASGRIFYLYAMGWYRQAPGKERELVAAISRSGGSTYYADSVKGRFTISRDNAKNTVYLQMNSLKPEDTAVYYCNTVWYFSSRTRLHDYWGQGTQVTVSS
- polyreactivity (PSR sort gate): high polyreactivity

Sequence: QVQLVESGGGLVQAGGSLRLSCAASGSIFGWYVMGWYRQEAGKERELVAANSSVGSTYYADSVKGRFTISRDNAKNTVYLQMNSLKPEDTAVYYCAKLRYPYLFWDDSEYWGQGTQVTVSS
- polyreactivity (PSR sort gate): low polyreactivity

Sequence: QVPLVESGGGLVQAGGSLRIRCAASGSIFAGNALGWYRQAPGKEWELVAAIARRGGSTYYADSVKGRFTISRDNAKNTVYLQMNSLKPEDTAVYYCNDLLRYAYHAAFGYWGQATQVTVSS
- polyreactivity (PSR sort gate): high polyreactivity

Sequence: QVQLEESGGCLVQAGGSLRLSCAASGITFYVYAMGWSRQAPGKERELVAAISSSGGSTYYADSVTGRFTISRDNAKNTGALQMNSLKPEDTAVYYCPADKCFYYGRKYGKYDYWGQGTQVTVSS
- polyreactivity (PSR sort gate): high polyreactivity

Sequence: QVQLVESGGGLVQAGGSLRLSCAASGSTFEYYAMGWYRQAPGKERELVATISIDGRTNYADSVKGRFTISRDNAKYTVYLQMNSLKPEDTAVYYCAASDLTAISSKYDYWGQGTQVTVSS
- polyreactivity (PSR sort gate): low polyreactivity

Sequence: QVQLVESGGGLVQAGGSLRLSCAASGRIFGHYAMGWYRQAPGKERELVAAIRYSAGRTYYAGSVKGRFTISRDNAKNTVYLQMNSLKPEDTAVYYCAKTSRYLTGGGDYWGQGTQVTVSS
- polyreactivity (PSR sort gate): high polyreactivity

Sequence: QVQLVESGGGLVQAGGSLRLSCAASGSTFDYYAMVWYRQAPGKEREFVAAISYSGGSTYYADSVKGRFTISRDNAKNTVYLQMNSLKPEDTAVYYCAAEGYYYNLYYWGQGTEVTVSS
- polyreactivity (PSR sort gate): high polyreactivity

Sequence: QVQLQESGGGLMQAGGSQRLSCAASGSISYYSDMCWYRQAPGKEREFVAGIGYGTTTNYADSVKGRFTTSRDNAKNTVYLQMISMKPEDTAVYYCAAYQGNGYEFYYWGQGTQVTVRS
- polyreactivity (PSR sort gate): low polyreactivity

Sequence: QVQLVESGGGLVQAGGSLRLSCAASGSIFYVYAMGWYRQAPGKERELVAAISRGGGSTSYADSVKGRFTISRDNAKNTVYLQMNSLKPEDTAVYYCNAYTYYHANHEQGFGYWGQGTQVTVSS
- polyreactivity (PSR sort gate): low polyreactivity

Sequence: QVQLVESGGGLVQAGGSLRLSCAASGSTFGSNAMGWYRQAPGKEREFVAAITWSGGSTYYADSVKGRFTISRDNAKNTVYLQMNSLKPEDTAVYYCAAESDSYFREYDYWGQGTQVTVSS
- polyreactivity (PSR sort gate): low polyreactivity
